In data set [1] the target is bovine serum albumin, P02769.
The target of data set [2] is T1, gluten immunogenic peptide 33-mer from α-gliadin.
T1 chain: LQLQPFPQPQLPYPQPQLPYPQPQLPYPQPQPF

Data set [3] has as its target gliadin.
Data set [4] addresses T2, gluten immunogenic peptide 26-mer from γ-gliadin.
T2 chain: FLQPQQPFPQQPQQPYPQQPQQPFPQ

Consider one protein from patent US20240167012.

bovine serum albumin, P02769, sequence (P02769 25-607): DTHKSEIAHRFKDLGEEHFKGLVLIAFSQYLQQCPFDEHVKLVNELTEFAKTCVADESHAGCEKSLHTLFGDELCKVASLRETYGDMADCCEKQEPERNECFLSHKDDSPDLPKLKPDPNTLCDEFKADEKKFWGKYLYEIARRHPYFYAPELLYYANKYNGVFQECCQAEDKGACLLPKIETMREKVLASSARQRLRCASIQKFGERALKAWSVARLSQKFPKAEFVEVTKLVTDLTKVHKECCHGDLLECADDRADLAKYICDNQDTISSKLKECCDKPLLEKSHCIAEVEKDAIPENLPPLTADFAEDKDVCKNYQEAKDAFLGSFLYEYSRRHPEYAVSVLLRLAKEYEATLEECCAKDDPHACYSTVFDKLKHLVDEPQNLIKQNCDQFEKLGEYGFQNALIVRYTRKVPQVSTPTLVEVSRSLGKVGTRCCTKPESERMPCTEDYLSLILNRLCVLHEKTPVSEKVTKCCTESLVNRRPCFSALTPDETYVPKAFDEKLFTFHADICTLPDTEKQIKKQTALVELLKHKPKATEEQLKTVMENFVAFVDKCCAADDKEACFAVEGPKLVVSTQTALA

B1: aspartic protease Rhodotorulapepsin (protein)
chain: SLTSYQNDNLWAGKITIGSPAQSFIMDFDTGSSDLWVPSSACSGSGCGTHARYTATSSSTSKAVTGKTLNVQYGDGSTASGPVYSDSVTVGGLTATGQTFGTATTLTGNFGSSPSDGLVGMAYPALSQLGVPPFFNTLWSEGRVAANSFSFRLATQNSAASELYLGGLNSAKYVAGTTGYTPVISQTYWAINTNVAVNGQAVSGLGTLAAIADTGTTLIVVPTADAQTFWASVPGAAPYSGGGGYYTFPCNQAPKVTFQFPGSLTKWATPYLNLGTVSYGSNQCVGAIVGQDAGLNAWILGDSFLKGVYTTFDFANNRVGFSKLA
With B1, in data set [1], the “relative proteolytic activity on BSA at different pH (A280 after TCA)” value was “the maximum proteolytic activity of the aspartic protease Rhodotorulapepsin was found at pH 2.5” and the “relative proteolytic activity on BSA at different temperatures (A280 after TCA)” value was “the aspartic protease Rhodotorulapepsin still has relative activity of 93% at 40 °C”. Further, in data set [2], the “hydrolysis of the 33-mer, RP-HPLC (3 h, 37° C.)” value is on record as “the optimal pH value for the hydrolysis reaction of the aspartic protease Rhodotorulapepsin on gluten immunogenic 33-mer is at pH 5.0”. Moreover, in data set [3], the “hydrolysis of gliadin 7.5 mg/ml, SDS-PAGE (pH 3.0, 3 h)” value was “even only 250 µg/ml of aspartic protease Rhodotorulapepsin was included in the enzyme mixture, gliadin was completely hydrolyzed”; the “hydrolysis of gliadin at pH 2.5 to 7.0, R5 ELISA of residual gliadin” value is listed as “the maximum activity of the aspartic protease Rhodotorulapepsin on gliadin was at pH 2.5”; the “hydrolysis of gliadin, SDS-PAGE” value is “gliadin had been hydrolyzed by the aspartic acid protease Rhodotorulapepsin after 0.5 hours of reaction under all of the three pH conditions of pH2.5, pH3.0, and pH5.0”; the “hydrolysis of gliadin, SDS-PAGE of residual gliadin (pH 3.0, 37° C., enzyme:gliadin 1:500)” value is given as “after reaction for 30 minutes, more than 90% of gliadin has been hydrolyzed”. For the same protein, in data set [3], the “relative activity to hydrolyze gliadin, ELISA of residual gliadin (pH 2.5, 1.5 h, pepsin 1 mg/ml plus Rhodotorulapepsin 0.05 mg/ml)” value was “the relative activity thereof is increased by 54% after adding the aspartic protease Rhodotorulapepsin”. Further, the “hydrolysis of the 26-mer, RP-HPLC (3 h, 37° C.)” value in data set [4] is on record as “the optimal pH value for the hydrolysis reaction of the aspartic protease Rhodotorulapepsin on gluten immunogenic 26-mer is at pH 3.0”.
